Test results taken from patent US20180044653A1, “Mutant Yeast Strain Capable of Degrading Cellobiose” (Institut National de la Recherche Agronomique, priority 2015, published 2018).

Experiments:
[1] = system: S. fibuligera β-glucosidase Bgl1; conditions: Yan and Lin, 1997; cited from earlier work
A. niger β-glucosidase = conditions: Yan and Lin, 1997; cited from earlier work
[2] = Michaelis-Menten kinetics (glucose release); format: biochemical; conditions: cellobiose
Source text: (§1) When using aryl-substrates, the standard assay method was employed, simply replacing pNPGlc by another substrate as appropriate. For oligosaccharides, the release of glucose was quantified using an enzyme kit (D-Fructose/D-Glucose Assay Kit, liquid stable, Megazyme).

[3] = Subcellular fractionation and enzyme localization, activity assayed with pNPGlc; format: biochemical, Y. lipolytica
Experimental: Fractionation of yeast cells was carried out as described by Cummings and Fowler (1996), with slight modifications. Briefly, yeasts were cultivated until a cellular density of 6×10^7 cells/mL was reached. Then, to quantify total β-glucosidase activity, a 50 mL sample was taken and subjected to centrifugation at 8,000×g for 5 min at 4° C. thus isolating a cell pellet and supernatant. The cell pellet was disrupted in Tris-HCl buffer (50 mM, pH 7.4, 3 mM EDTA and 0.5 mM PMSF) using a MP FastPrep-24 Instrument (MP Biomedicals Inc.). β-Glucosidase activity in both the cell lysate and the supernatant was determined as described earlier in order to estimate total β-glucosidase activity. Using a second 50 mL yeast culture, a cell pellet containing approximately 2×10^8 cells/mL was obtained by centrifugation and then treated with zymolyase 100T at 10 mg/mL (Seikagaku corp roger) in 15 mL of sorbitol buffer (1 M sorbitol, 50 mM Tris-HCl, pH 7.4, 2 mM dithiothreitol, 10 mM MgCl2, 20 mM-sodium azide, 0.5 mM PMSF) at 30° C. with gentle shaking. Protoplast formation was monitored using a microscope until ≧99% of the cells was lysed when. SDS was added (1% SDS w/v). The solid protoplast fraction was then separated from the supernatant by centrifugation (1000 rpm for 5 min at 4° C.) and the latter was designated as the periplasmic fraction. The protoplasts were re-suspended in Tris-HCl buffer (50 mM Tris-HCl, pH 7.4) and disrupted by vortex in the presence of glass beads (0.4-0.45 mm). The homogenate was centrifuged (20,000×g for 2 h at 4° C.) and the supernatant and solid fractions were designated as the cytoplasmic and membrane fraction respectively. Prior to enzyme assays, the membrane fraction was suspended in citrate buffer.
Activity was assayed with pNPGlc.

[4] = Substrate specificity, aryl-glycoside; format: biochemical
Source text: as §1

[5] = Optimal temperature and pH for activity; format: biochemical; conditions: pNPGlc
Experimental: (§2) Optimal temperatures and pH for the activity of Bgl1-His6 and Bgl2 were determined using pNPGlc as the substrate. Assays were either performed at pH 5.0 and various temperatures (30-70° C.), or at 30° C. in variable pH conditions (2.0 to 8.0) using either 50 mM glycine-HCl (pH 2.0), 50 mM citrate/acetate (pH 3.0-7.2), or potassium phosphate (pH 7.0-8.2) buffer. When the temperature was varied, the pH of the citrate buffer was adjusted accordingly. Stability of Bgl1-His6 and Bgl2 depending on pH and temperature was analysed as follows: enzymes were incubated at 30° C. for up to 2 h at various pH values (2.0 to 8.0), or at various temperatures (30-70° C.) for up to 2 h in 50 mM citrate buffer, pH 5.0. Residual glucosidase activity was then assayed at 30° C. in 50 mM citrate buffer, pH 5.0.

[6] = Specific activity on cellobiose; format: biochemical
Source text: as §1

[7] = Stability depending on pH and temperature (residual glucosidase activity); format: physicochemical
Experimental: as §2

[8] = β-Glucosidase activity, release of pNP from pNPGlc; format: biochemical; conditions: for Specific activity: pNPGlc
Experimental: β-Glucosidase activity was measured by quantifying the release of pNP (p-nitroplienol) from pNPGlc as described previously (Guo et al., 2011). One unit of pNPGlcase activity was defined as the amount of enzyme required to release 1 μmol pNP per min. Cellobiose phosphorylase activity was assayed by measuring the formation of Glc-1P from cellobiose as described previously (Reichenbecher et al., 1997). One unit of activity (U) was defined as the amount of enzyme required to release 1 μmol Glc-1P per min. All protein concentrations were measured using the Bradford method and bovine serum albumin as a standard (Bradford, 1976).

OC[C@H]1O[C@@H](O[C@H]2[C@H](O)[C@@H](O)C(O)O[C@@H]2CO)[C@H](O)[C@@H](O)[C@@H]1O (stereo partly drawn) [Cellobiose]
Km [1]: 2800 µM | Km (A. niger β-glucosidase): 2700 µM

B1: Bgl2: β-glucosidase of Y. lipolytica encoded by BGL2 (YALI0B14289g), SEQ ID NO: 6, secreted to the culture medium (protein, listed as Yarrowia lipolytica)
chain: MLAFVLLLTMLLAAALADPFSDKDAYKHSPPYYPAPEIGRVPTDLRWRAALKVAQGMVANMTLLEKVNITTGTGWEMGPCVGNTGTVERLGIKSLCLQDGPLGIRFADLITTFPAGITIASTFSRQLVRERGAAMGRENRRKGVDITLSPVVGPLGRHANGGRIWEGFSADPYLAGKLAAEAVTGIQGQNVMAVVKHMVGNEQEHFRQLGEWQGFGFKDLKQPLSSNIDDRTLNEAYLWPFADAVRANVGSVMCSYQQINGSQGCQNAHILNGKLKEEMGFQGFVMSDWLAQRSGVASVLAGLDMSMPGDGLVWADGVPLMGYELTRSVLNGTIDESRVDDMVTRILTPILYLSITPTDPNFSSWTNDTTSYKYYGAKAGGNVTVNRHIDVRDQYTTKAALDGANAALVLLKNEKKTLPLNPTNIGNLNIFGIGSKTGPLGAVCGENMQCSDGALIEGWGSGSVYPTDYQSPYDAIKERASKDNITIGGTTQSWGNLSNVEILSAAADASVVFVLSDSGESTGIVDGNIGDRNNLTLWHNGDEVVKAVASKNPNTIVVVTTVGPVNLEKWIDNPNVTAVLLTGPAGDFGGRAAASILFGDIAPSGKLPFTIAKNDTDYIPLTTKIPEDGLPQDYFTEGTLLDYKRFDENQVTPRFEFGYGLSYSNITVENLEARYAFPSIPEFLPTPFAPSNPNKPKNAFTPHANESVFPSDIDPLNKYVYPYLNDTSEIFSNETHYPYPEGYSSEQSNSTNINGGAVGGNPALWLSAVYIVHSVSNYGPYDTGVVTQMYIAFPQDNDDLKTAPRQLRGFERSELKVGERQGILYDVQWRDLAVWDVKLQSWRVQRGEYKVYVGHSSRDFVLTTSFTLK
KM fold lower than those of β-glucosidases from S. fibuligera and A. niger [2]: ~4 fold | Relative enzyme activity, Cytoplasm ([3]; fraction: Cytoplasm): 4.8 ± 0.8% | Relative enzyme activity, Growth medium ([3]; fraction: Growth medium): 79.6 ± 1.2% | Relative enzyme activity, Membrane ([3]; fraction: Membrane): 3.7 ± 0.3% | Relative enzyme activity, Periplasm ([3]; fraction: Periplasm): 25.8 ± 1.0% | Relative enzyme activity, Total ([3]; fraction: Total): 100% | activity on pNP-α-D-glucopyranoside [4]: Neither enzyme displayed activity | activity on pNP-β-D-galactopyranoside [4]: Neither enzyme displayed activity | activity on pNP-β-D-cellobioside relative to pNPGlc ([4]; activity on pNPGlc as benchmark): 27% | pH of highest activity ([5]; 30° C.): 4.0 | temperature of highest activity ([5]; pH 5.0): 50 °C | specific activity on cellobiose [6]: 25 units/mg protein | enzyme activity remained ([7]; 30° C. and 40° C. at pH 5): 100% | pH range in which enzyme is stable ([7]; 30° C., up to 2 h): 3.5-7.0 | enzyme activity remained ([7]; pH 4.0, 5.0 and 6.0 at 30° C.): 100% | temperature below which enzyme is stable ([7]; pH 5.0, up to 2 h): below 50 °C | decrease in specific activity after deglycosylation ([8]; endoglycosidase H treatment, pNPG): 60% | Specific activity ([8]; purification step: Culture filtrate): 0.23 U/mg | Specific activity ([8]; purification step: Gel filtration): 25.8 U/mg | Specific activity ([8]; purification step: Ion exchange): 2.0 U/mg | Specific activity ([8]; purification step: Ultra filtration): 0.26 U/mg | activity on pNPGlc of purified enzyme ([8]; preliminary characterization, pNPGlc as substrate): 25.8 U/mg
